Assay results published in patent publication US20230212319A1, “NOVEL ANTIGEN BINDING DOMAINS AND SYNTHETIC ANTIGEN RECEPTORS INCORPORATING THE SAME” (University of Southern California, priority 2020, published 2023).

Assays:
Type in all cases: cell-based
HEL 92.1.7 cells = experiment: JNG assay, co-culture with HEL 92.1.7 cells
Description: (§1) Cellular supernatant is collected and assayed for the induction of cytokines (e.g., IL2).
(§2) JNG (Jurkat cells expressing EGFP under an NFAT promoter) were infected with lentiviral vectors encoding different single chain and multi-chain SARs by spinfection in the presence of 8 µg/ml of Polybrene® (Sigma, Catalog no. H9268). The Jurkat-NFAT-GFP cells are engineered in such a way that the IL-2 promoter, which carries NFAT binding sites, is cloned upstream of the GFP gene. These cells have been used to study signaling via TCR and CAR. The different SARs were stably expressed in Jurkat NFAT-GFP cells by lentiviral mediated gene transfer, followed by selection with puromycin or blasticidin. No drug selection was used in case the construct lacked an antibiotic resistance gene. The SAR-expressing Jurkat-NFAT-GFP cells were cocultured with the target cells at E:T ratio of approximately 1:2 for approximately 4 hours to 18 hours. When the interaction between SIRs and their target antigen results in activation of the NFAT pathway, GFP expression is induced. […] GFP expression was monitored by FACS analysis. The Jurkat-NFAT-GFP (parental) cells were used as control. The structure of different constructs can be determined based on their names. […] The sequence of the other constructs in the table can be similarly determined from their names and by referring to the different Tables of this disclosure that provide the names and SEQ ID NO of the different modules. Alternatively, the composition and modular architecture of the different SAR constructs can be determined from their sequences by bioinformatics tools, including using nucleic acid and amino acids homology searches. […] The signs +/-, +, 2+ etc. after the name of the cell lines indicate the relative degree of positivity on the Jurkat-NFAT-GFP assay as measured by the % GFP positive cells after culture of the SAR expressing Jurkat-NFAT-GFP cells with that cell line above the % GFP cells observed in parental Jurkat NFAT-GFP cells serving as controls. […]

RAJI cells = experiment: JNG assay, co-culture with RAJI cells
How it was run: (§3)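 Jurkat NFAT-GFP (JNG) cells stably transduced with SARs by lentivirus, with drug selection where the construct carried a resistance gene, then co-cultured with target cells at E:T ~1:2 for ~4–18 h. % GFP-positive cells measured by FACS against parental JNG; +/- to 5+ correspond to ~5–50% GFP-positive.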

Nalm6 cells = experiment: JNG assay, co-culture with Nalm6 cells; conditions: co-culture with Nalm6 cells
How it was run: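 Jurkat NFAT-GFP reporter cells stably expressing lentivirally delivered SARs (puromycin or blasticidin selection) were cocultured with target cells at E:T ~1:2 for ~4–18 h. GFP was read by FACS, and % GFP+ cells were scored against parental reporter cells (+/-, +, 2+…5+ ≈ 5%, 10%, 20%…50%).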

L428 cells = experiment: JNG assay, co-culture with L428 cells; conditions: L428 cells (CD123+), only in the presence of SAR adaptor bc40-p26-CD123-cg06 (SEQ ID NO: 23120)
Description: as §1, §2

L363 cells = experiment: JNG assay, co-culture with L363 cells; conditions: co-culture with L363
How it was run: as §3

U266 cells = experiment: JNG NFAT-GFP induction on co-culture with U266

B1: SEQ ID NO: 21975: bispecific SIR: MPL-175 scFv linked to hCD19-Bu12 scFv attached to hTCRα-CSDVP via MYC tag; hTCRβ-KACIAH carries a V5 tag (protein)
chain: MALPVTALLLPLALLLHAARPLEGKPIPNPLLGLDSTGSGEDLKNVFPPEVAVFEPSKAEIAHTQKATLVCLATGFYPDHVELSWWVNGKEVHSGVCTDPQPLKEQPALNDSRYCLSSRLRVSATFWQNPRNHFRCQVQFYGLSENDEWTQDRAKPVTQIVSAEAWGRADCGITSASYHQGVLSATILYEILLGKATLYAVLVSALVLMAMVKRKDSRGRAKRSGSGATNFSLLKQAGDVEENPGPTSMALPVTALLLPLALLLHAARPDQIVLTQSPAIMSASPGEKVTISCSASSSVSYMYWYQQKPGSSPKPWIYRTSNLASGVPARFSGSGSGTSYSLTISNMEAEDAAAYYCQQYHSYPTTFGGGTKLEVKGGGGSGGGGSGGGGSEVQLVESGGGLVQPKGSLKLSCAASGFSFNTYAMNWVRQAPGKGLEWIAHIRSKSNNFATYYADSVKDRFSISRDASENILFLQMNNLKTEDTAMYYCVRQGGDFPMDYWGQGTSVTVSSTREAAAKEIVLTQSPATLSLSPGERATLSCSASSSVSYMHWYQQKPGQAPRLLIYDTSKLASGIPARFSGSGSGTDFTLTISSLEPEDVAVYYCFQGSVYPFTFGQGTKLEIKRGGGGSGGGGSGGGGSQVQLQESGPGLVKPSQTLSLTCTVSGGSISTSGMGVGWIRQHPGKGLEWIGHIWWDDDKRYNPALKSRVTISVDTSKNQFSLKLSSVTAADTAVYYCARMELWSYYFDYWGQGTLVTVSSTREQKLISEEDGSGIQNPDPAVYQLRDSKSSDKSVCLFTDFDSQTNVSQSKDSDVYITDKCVLDMRSMDFKSNSAVAWSNKSDFACANAFNNSIIPEDTFFPSSDVPCDVKLVEKSFETDTNLNFQNLSVIGFRILLLKVAGFNLLMTLRLWSSRAKRSGSGVKQTLNFDLLKLAGDVESNPGPSRGHMTEYKPTVRLATRDDVPRAVRTLAAAFADYPATRHTVDPDRHIERVTELQELFLTRVGLDIGKVWVADDGAAVAVWTTPESVEAGAVFAEIGPRMAELSGSRLAAQQQMEGLLAPHRPKEPAWFLATVGVSPDHQGKGLGSAVVLPGVEAAERAGVPAFLETSAPRNLPFYERLGFTVTADVEVPEGPRTWCMTRKPGA
GFP induction (HEL 92.1.7 cells; co-culture with MPL expressing HEL 92.1.7 cells): marginal GFP induction
GFP induction / activity (RAJI cells; co-culture with RAJI cells): only weak activity
GFP induction / activity (Nalm6 cells): only weak activity

B2: SEQ ID NO: 22292: D domain (Afo3) binding a p26 domain, attached to the N-terminus of the vL fragment of a hu-mROO5-1 based SIR (protein)
chain: MALPVTALLLPLALLLHAARPACMGSWFEFYDRLNAIDARLWALGGSEAELAAFEKEIAAFESELQAYKGKGNPEVENLRVHAAAIREWLQAYRHNGTGGGGSGGGGSGGGGSEFDIQMTQSPSSLSASVGDRVTITCKASDHINNWLAWYQQKPGQAPKLLIYGATTLETGVPSRFSGSGSGTDYTLTISSLQPEDFATYYCQQSWNTPWTFGQGTKLEIKRLEDLKNVFPPEVAVFEPSEAEISHTQKATLVCLATGFYPDHVELSWWVNGKEVHSGVCTDPQPLKEQPALNDSRYCLSSRLRVSATFWQNPRNHFRCQVQFYGLSENDEWTQDRAKPVTQIVSAEAWGRADCGFTSESYQQGVLSATILYEILLGKATLYAVLVSALVLMAMVKRKDSRGRAKRSGSGATNFSLLKQAGDVEENPGPTSMDWIWRILFLVGAATGAHSFEQVQLQQPGAELVKPGASVKMSCKASGYAFSSYWINWMKQKPGQGLEWIGQIYPGDGDTNYNGKFKGRATLTADTSSSTAYMQLSSLTSEDSAVYFCARSITTVVGCAMDYWGQGTSVTVSSTRIQNPDPAVYQLRDSKSSDKSVCLFTDFDSQTNVSQSKDSDVYITDKCVLDMRSMDFKSNSAVAWSNKSDFACANAFNNSIIPEDTFFPSPESSCDVKLVEKSFETDTNLNFQNLSVIGFRILLLKVAGFNLLMTLRLWSSRAKRSGSGVKQTLNFDLLKLAGDVESNPGPSRGHMTEYKPTVRLATRDDVPRAVRTLAAAFADYPATRHTVDPDRHIERVTELQELFLTRVGLDIGKVWVADDGAAVAVWTTPESVEAGAVFAEIGPRMAELSGSRLAAQQQMEGLLAPHRPKEPAWFLATVGVSPDHQGKGLGSAVVLPGVEAAERAGVPAFLETSAPRNLPFYERLGFTVTADVEVPEGPRTWCMTRKPGA
GFP induction (L428 cells): robust induction of GFP

B3: 22149 (protein)
chain: MALPVTALLLPLALLLHAARPACEVQLLESGGGLIQPGGSLRLSCAASGFTFSSHAMTWVRQAPGKGLEWVSAISGSGDYTHYADSVKGRFTISRDNSKNTVYLQMNSLRAEDSAVYYCAKDEDGGSLLGHRGQGTLVTVSSGTGGGGSGGGGSGGGGSEFDVVMTQSPSSLSASVGDRVTITCMASEDIYIRLAWYQQKPGNAPKLLIYAATSLETGVPSRFSGSGSGTDFTLTISSLQPEDFATYYCQQYWSSPWTFGGGTKVEIKLEGQPKANPTVTLFPPSSEELQANKATLVCLISDFYPGAVTVAWKADGSPVKAGVETTKPSKQSNNKYAASSYLSLTPEQWKSHRSYSCQVTHEGSTVEKTVAPTECSGRADCGFTSESYQQGVLSATILYEILLGKATLYAVLVSALVLMAMVKRKDSRGRAKRSGSGATNFSLLKQAGDVEENPGPTSATMDWIWRILFLVGAATGAHSGPQVQLQESGGGLAQAGGSLRLSCAASGRTFSMGWFRQAPGKEREFVAAITYSGGSPYYASSVRGRFTISRDNAKNTVYLQMNSLKPEDTAVYYCAANPTYGSDWNAENWGQGTQVTVSSGSGGGGSGGGGSGGGGSFEQVQLQESGPGLVKPSQTLSLTCTVSGYSITSDYTWNWIRQPPGNGLEWIGYITYSGSTSYNPSLKSRVLISVDTSKNQVSLKLSSVTAADTAVYYCARLGRRYTMDYWGQGTTVTVSSTRASTKGPSVFPLAPSSKSTSGGTAALGCLVKDYFPEPVTVSWNSGALTSGVHTFPAVLQSSGLYSLSSVVTVPSSSLGTQTYICNVNHKPSNTKVDKRVEPKSCIPEDTFFPSPESSCDVKLVEKSFETDTNLNFQNLSVIGFRILLLKVAGFNLLMTLRLWSSRAKRSGSGVKQTLNFDLLKLAGDVESNPGPSRGHMTEYKPTVRLATRDDVPRAVRTLAAAFADYPATRHTVDPDRHIERVTELQELFLTRVGLDIGKVWVADDGAAVAVWTTPESVEAGAVFAEIGPRMAELSGSRLAAQQQMEGLLAPHRPKEPAWFLATVGVSPDHQGKGLGSAVVLPGVEAAERAGVPAFLETSAPRNLPFYERLGFTVTADVEVPEGPRTWCMTRKPGA
NFAT-GFP ASSAY: HEL 92.1.7 (HEL 92.1.7 cells; co-culture with HEL 92.1.7): +/- (refer to approximately 5%, 10%, 20%, 30%, 40% and 50% GFP positive cells)
NFAT-GFP ASSAY: L363 (L363 cells): + (refer to approximately 5%, 10%, 20%, 30%, 40% and 50% GFP positive cells)
NFAT-GFP ASSAY: Raji (RAJI cells; JNG cells expressing construct, co-culture with Raji): 3+ (refer to approximately 5%, 10%, 20%, 30%, 40% and 50% GFP positive cells)
NFAT-GFP ASSAY: U266 (U266 cells): 3+ (refer to approximately 5%, 10%, 20%, 30%, 40% and 50% GFP positive cells)
